Columns and labels:
[1] = molecular target: T1, CILK1 peptide AQPVHGRTDWASKYA; experiment: SPR sensorgrams (Response in RU), 15.625, 31.25, 62.5, 125 and 500 nM
T1 construct: also called serine/threonine-protein kinase ICK (CILK) isoform 2 peptide
T1 peptide: AQPVHGRTDWASKYA

mouse BTN1A1 = molecular target: T2, mouse BTN1A1 (mouse, UniProt Q62556 27-524, limits assumed); experiment: immunohistochemistry, 2 ug/mL
T2 construct: also called mBTN1A1
T2 sequence (looked up): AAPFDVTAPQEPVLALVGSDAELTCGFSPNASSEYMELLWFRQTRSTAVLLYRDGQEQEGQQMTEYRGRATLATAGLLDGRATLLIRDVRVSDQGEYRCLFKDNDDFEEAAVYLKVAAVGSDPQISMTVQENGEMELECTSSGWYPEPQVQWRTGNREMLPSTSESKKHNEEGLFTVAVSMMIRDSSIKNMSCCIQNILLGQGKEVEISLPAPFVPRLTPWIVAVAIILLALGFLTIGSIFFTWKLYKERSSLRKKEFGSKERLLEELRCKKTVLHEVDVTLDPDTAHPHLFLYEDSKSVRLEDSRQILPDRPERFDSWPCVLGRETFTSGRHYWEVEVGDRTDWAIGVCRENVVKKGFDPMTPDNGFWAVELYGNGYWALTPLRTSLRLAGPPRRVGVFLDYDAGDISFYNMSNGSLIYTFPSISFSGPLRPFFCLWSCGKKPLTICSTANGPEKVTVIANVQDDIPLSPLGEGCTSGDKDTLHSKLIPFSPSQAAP
Excerpt: […]

[2] = molecular target: peptide 4 variant V362A expressed by HEK293T cells (human); experiment: western blot, relative to WT
[3] = molecular target: peptide 4 variant C375A expressed by HEK293T cells (human); experiment: western blot, relative to WT
[4] = molecular target: peptide 4 variant R367A expressed by HEK293T cells (human); experiment: western blot, relative to WT
[5] = molecular target: peptide 4 WT expressed by HEK293T cells (human); experiment: western blot, relative to WT
[6] = molecular target: T3, BTN1A1 peptide 4 Mutant 7 (R367A) (human); experiment: KD against BTN1A1-pep4- WT
T3 construct: The entry already carries the mutation; also called BTN1A1-pep4- Mutant 7
T3 peptide: EVEVGDATDWAIGVC

[7] = molecular target: T4, BTN1A1 peptide 4 Mutant 10 (W370A) (human); experiment: KD against BTN1A1-pep4- WT
T4 construct: The entry already carries the mutation; also called BTN1A1-pep4- Mutant 10; mutant peptide #10
T4 peptide: EVEVGDRTDAAIGVC

[8] = molecular target: T5, BTN1A1 peptide 4 Mutant 8 (T368A) (human); experiment: KD against BTN1A1-pep4- WT
T5 construct: The entry already carries the mutation; also called BTN1A1-pep4- Mutant 8
T5 peptide: EVEVGDRADWAIGVC

TRIM11 peptide = molecular target: T6, TRIM11 peptide; experiment: KD against BTN1A1-pep4- WT
T6 peptide: EVEVGDRTSWALGVC

[9] = molecular target: T7, BTN1A1 peptide 4 Mutant 5 (G365A) (human); experiment: KD against BTN1A1-pep4- WT
T7 construct: The entry already carries the mutation; also called BTN1A1-pep4- Mutant 5
T7 peptide: EVEVADRTDWAIGVC

[10] = molecular target: T8, BTN1A1 peptide 4 Mutant 6 (D366A) (human); experiment: KD against BTN1A1-pep4- WT
T8 construct: The entry already carries the mutation; also called BTN1A1-pep4- Mutant 6; mutant peptide #6
T8 peptide: EVEVGARTDWAIGVC

[11] = molecular target: T9, BTN1A1 peptide 4 Mutant 12 (I372A) (human); experiment: KD against BTN1A1-pep4- WT
T9 construct: The entry already carries the mutation; also called Mutant 12 (1372A); BTN1A1-pep4- Mutant 12
T9 peptide: EVEVGDRTDWAAGVC

[12] = molecular target: T10, BTN1A1 peptide 4 Mutant 9 (D369A) (human); experiment: KD against BTN1A1-pep4- WT
T10 construct: The entry already carries the mutation; also called BTN1A1-pep4- Mutant 9
T10 peptide: EVEVGDRTAWAIGVC

BTN1A1 Peptide 4 = molecular target: T11, BTN1A1 Peptide 4 (human); experiment: KD against BTN1A1-pep4- WT
T11 construct: also called BTN1A1-pep4- WT; Pep4
T11 peptide: EVEVGDRTDWAIGVC

[13] = molecular target: T12, BTN1A1 peptide 4 Mutant 11 (A371G) (human); experiment: KD against BTN1A1-pep4- WT
T12 construct: The entry already carries the mutation; also called BTN1A1-pep4- Mutant 11
T12 peptide: EVEVGDRTDWGIGVC

B1: STC43H11-1 (antibody, V domains shown)
VH: QSLEESGGRLVTPGGSLTLTCTVSGIDLSSYAMGWVRQAPGEGLEWIGSIGTGGGTGYASWAKGRFTISKTSTTVDLKMTSLTASDTATYFCATSNLWGPGTLVTVSS
VL: QVLTQTASPVSAAVGGTVTINCQASQSVYNNNRCSWFQQKPGQPPKRLIYHTSTLDSGVPSRFKGSGSGTQFTLTISDVQCDDAATYYCLGNYDCSRADCAAFGGGTEVVVK
notes: From immunized New Zealand rabbits; IgG heavy chain and Kappa light chain; also called clone #43H11; Clone 43H11
binding result [1]: no binding (tested: 500 nM)
binding result (mouse BTN1A1): binds
% binding Rel. Quant. [2]: 247%
% binding Rel. Quant. [3]: 277%
% binding Rel. Quant. [4]: 50.1%
% binding Rel. Quant. [5]: 100%
Fold change [6]: 4 fold
Fold change [7]: 59 fold
Fold change [8]: 21 fold
Fold change (TRIM11 peptide): 7360 fold
Fold change [9]: 20 fold
Fold change [10]: 160 fold
Fold change [11]: 126 fold
Fold change [12]: 463 fold
Fold change (BTN1A1 Peptide 4): 1 fold
Fold change [13]: 16 fold

From US20250189530A1 (STCUBE, published 2025)
